Results published in the supplement of paper PMC10065799, “High-throughput profiling of sequence recognition by tyrosine kinases and SH2 domains using bacterial peptide display” (eLife, 2023).

Columns and labels:
c-Src SH2 = test: SH2 binding enrichment of the phosphorylated peptide, bacterial display (enrichment ratio); higher = better substrate or ligand; peptides without Tyr show the background
SHP2-C SH2 = test: as above
Grb2 SH2 = Grb2 SH2 (UniProt P62993); test: as above
Fer (mouse) = test: phosphorylation enrichment, bacterial display (enrichment ratio); higher = better substrate or ligand; peptides without Tyr show the background
c-Src = test: as above
Fes = Fes (UniProt P07332); test: as above
MERTK = MERTK (UniProt Q12866); test: as above
EPHB1 = EPHB1 (UniProt P54762); test: as above
FGFR3 = FGFR3 (UniProt P22607); test: as above
Fyn = Fyn (UniProt P06241); test: as above
EPHB2 = EPHB2 (UniProt P29323); test: as above
AncSZ = test: as above
Hck = Hck (UniProt P08631); test: as above
c-Abl (mouse) = test: as above
Jak2 = Jak2 (UniProt O60674); test: as above
FGFR1 = FGFR1 (UniProt P11362); test: as above
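Throughout, for SH2 binding enrichment of the phosphorylated peptide, bacterial display: peptide library displayed on the E. coli surface as eCPX fusions, selected cells deep-sequenced, score is each peptide's frequency after selection divided by its frequency in the input.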
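Throughout, for phosphorylation enrichment, bacterial display: 11-residue human phosphosite peptides and single-mutation variants displayed on the E. coli surface, counted by deep sequencing, each peptide's frequency after selection divided by its frequency in the unselected input library; frequency after pTyr selection over input frequency; kinase dosed for 20-30% of maximal phosphorylation in three min.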

Sequence of EPHB2 (P29323 whole entry, looked up): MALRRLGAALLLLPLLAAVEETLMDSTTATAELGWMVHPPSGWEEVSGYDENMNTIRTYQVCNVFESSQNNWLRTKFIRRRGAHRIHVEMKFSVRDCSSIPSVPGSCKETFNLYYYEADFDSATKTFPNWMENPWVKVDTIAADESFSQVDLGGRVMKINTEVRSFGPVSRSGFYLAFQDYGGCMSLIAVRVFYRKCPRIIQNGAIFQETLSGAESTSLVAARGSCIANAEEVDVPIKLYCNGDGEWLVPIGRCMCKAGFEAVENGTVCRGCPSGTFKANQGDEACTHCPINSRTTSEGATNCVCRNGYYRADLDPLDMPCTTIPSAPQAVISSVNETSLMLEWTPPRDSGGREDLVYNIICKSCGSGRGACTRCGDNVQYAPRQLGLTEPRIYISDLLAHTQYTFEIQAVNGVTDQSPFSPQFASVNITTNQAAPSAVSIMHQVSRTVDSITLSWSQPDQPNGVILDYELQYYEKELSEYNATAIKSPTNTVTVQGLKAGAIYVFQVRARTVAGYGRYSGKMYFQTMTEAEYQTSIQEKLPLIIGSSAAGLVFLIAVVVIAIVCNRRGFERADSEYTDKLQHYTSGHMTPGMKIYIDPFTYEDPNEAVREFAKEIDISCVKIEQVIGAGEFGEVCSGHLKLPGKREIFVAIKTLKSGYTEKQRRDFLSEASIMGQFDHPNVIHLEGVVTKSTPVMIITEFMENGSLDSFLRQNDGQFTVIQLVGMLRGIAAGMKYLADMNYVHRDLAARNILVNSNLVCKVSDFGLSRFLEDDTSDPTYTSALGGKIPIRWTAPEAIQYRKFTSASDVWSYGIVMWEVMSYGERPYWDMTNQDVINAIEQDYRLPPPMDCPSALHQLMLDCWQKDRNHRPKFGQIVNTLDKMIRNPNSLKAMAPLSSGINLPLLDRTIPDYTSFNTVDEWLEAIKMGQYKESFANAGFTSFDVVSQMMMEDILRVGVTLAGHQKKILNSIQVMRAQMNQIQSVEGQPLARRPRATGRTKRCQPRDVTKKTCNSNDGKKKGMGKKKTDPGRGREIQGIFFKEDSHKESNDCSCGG
Sequence of MERTK (Q12866 whole entry, looked up): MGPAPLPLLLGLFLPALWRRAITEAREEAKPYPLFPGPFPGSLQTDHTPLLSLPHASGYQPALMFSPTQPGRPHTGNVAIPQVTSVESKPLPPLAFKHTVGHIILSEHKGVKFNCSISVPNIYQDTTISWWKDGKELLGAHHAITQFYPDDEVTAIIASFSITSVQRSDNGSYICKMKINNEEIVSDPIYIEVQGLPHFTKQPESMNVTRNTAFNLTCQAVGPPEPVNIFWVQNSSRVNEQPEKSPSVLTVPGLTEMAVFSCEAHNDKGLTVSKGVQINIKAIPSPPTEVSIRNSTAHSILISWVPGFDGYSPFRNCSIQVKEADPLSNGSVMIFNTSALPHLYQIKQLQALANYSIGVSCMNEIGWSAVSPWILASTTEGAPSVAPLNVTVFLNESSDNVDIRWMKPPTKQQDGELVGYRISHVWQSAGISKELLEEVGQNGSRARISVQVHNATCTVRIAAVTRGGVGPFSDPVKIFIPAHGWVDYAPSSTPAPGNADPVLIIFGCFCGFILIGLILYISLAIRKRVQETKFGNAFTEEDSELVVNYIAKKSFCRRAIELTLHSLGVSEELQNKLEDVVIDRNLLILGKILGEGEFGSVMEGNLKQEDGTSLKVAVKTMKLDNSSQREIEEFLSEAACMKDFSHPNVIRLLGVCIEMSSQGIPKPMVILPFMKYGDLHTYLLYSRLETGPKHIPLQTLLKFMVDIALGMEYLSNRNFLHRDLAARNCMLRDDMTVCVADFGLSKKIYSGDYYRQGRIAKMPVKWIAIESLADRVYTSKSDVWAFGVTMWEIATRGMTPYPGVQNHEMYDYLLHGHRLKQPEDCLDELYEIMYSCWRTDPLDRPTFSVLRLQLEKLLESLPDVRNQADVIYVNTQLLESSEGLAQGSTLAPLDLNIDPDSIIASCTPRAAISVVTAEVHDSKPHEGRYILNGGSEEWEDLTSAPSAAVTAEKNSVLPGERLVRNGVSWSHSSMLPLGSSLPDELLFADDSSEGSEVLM
Sequence of FGFR3 (P22607 whole entry, looked up): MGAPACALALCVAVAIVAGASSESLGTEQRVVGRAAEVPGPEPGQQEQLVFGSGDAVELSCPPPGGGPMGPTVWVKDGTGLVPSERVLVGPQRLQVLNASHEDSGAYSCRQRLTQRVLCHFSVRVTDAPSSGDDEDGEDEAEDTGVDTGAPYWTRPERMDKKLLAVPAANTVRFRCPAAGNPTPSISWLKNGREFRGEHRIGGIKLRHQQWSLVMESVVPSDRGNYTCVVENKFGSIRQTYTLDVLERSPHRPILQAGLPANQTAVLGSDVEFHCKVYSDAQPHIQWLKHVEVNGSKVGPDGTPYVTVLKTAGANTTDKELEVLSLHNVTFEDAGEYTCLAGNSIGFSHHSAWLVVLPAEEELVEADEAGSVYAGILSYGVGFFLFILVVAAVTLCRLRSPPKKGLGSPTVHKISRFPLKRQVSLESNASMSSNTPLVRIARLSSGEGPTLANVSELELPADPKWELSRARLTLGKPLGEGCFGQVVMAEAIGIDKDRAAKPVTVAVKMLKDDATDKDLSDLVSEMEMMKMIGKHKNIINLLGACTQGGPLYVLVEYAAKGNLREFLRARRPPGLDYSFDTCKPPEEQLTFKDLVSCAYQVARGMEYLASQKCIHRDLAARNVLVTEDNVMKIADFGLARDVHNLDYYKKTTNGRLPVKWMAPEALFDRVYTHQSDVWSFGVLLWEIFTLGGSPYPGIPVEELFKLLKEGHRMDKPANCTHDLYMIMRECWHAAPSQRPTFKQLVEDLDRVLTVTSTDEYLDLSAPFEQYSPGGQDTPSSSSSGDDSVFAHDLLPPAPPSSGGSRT
Sequence of Hck (P08631 whole entry, looked up): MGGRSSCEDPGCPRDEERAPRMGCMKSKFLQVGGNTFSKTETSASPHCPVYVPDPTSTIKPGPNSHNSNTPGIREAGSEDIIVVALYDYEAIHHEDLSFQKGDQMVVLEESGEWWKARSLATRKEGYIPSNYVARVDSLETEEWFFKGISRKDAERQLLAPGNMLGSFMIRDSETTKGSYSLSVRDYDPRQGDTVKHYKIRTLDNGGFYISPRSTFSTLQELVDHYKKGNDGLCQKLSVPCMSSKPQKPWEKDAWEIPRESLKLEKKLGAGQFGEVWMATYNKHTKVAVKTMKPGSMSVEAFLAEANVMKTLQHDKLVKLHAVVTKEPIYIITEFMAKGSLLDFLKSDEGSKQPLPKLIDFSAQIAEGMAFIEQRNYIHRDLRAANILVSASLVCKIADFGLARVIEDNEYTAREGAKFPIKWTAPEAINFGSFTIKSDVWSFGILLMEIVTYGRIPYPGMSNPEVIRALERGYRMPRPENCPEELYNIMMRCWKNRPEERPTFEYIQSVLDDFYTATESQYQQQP
Sequence of FGFR1 (P11362 whole entry, looked up, the tested form may be a part): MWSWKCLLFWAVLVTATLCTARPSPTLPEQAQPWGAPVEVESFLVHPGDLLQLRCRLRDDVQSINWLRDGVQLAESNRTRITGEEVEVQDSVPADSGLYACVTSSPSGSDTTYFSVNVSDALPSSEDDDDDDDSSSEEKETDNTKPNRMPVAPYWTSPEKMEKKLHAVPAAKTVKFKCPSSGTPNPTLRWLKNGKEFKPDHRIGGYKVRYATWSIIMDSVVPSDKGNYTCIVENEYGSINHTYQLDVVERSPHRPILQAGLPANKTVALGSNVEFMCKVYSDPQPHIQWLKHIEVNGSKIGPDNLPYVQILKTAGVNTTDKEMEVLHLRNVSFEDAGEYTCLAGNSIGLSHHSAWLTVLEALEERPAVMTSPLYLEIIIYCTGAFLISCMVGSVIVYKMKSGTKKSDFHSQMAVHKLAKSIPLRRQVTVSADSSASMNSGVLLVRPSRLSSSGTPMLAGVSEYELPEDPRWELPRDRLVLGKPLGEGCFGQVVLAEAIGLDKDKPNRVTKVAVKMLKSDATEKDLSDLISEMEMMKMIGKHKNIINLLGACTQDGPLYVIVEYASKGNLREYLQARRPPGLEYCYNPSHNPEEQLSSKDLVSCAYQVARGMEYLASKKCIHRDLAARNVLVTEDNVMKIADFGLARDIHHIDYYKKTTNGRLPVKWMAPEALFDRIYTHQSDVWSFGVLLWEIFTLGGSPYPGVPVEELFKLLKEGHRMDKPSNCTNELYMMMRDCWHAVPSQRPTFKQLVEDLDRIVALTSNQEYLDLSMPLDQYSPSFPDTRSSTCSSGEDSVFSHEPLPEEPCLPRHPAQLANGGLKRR
Sequence of Fes (P07332 whole entry, looked up): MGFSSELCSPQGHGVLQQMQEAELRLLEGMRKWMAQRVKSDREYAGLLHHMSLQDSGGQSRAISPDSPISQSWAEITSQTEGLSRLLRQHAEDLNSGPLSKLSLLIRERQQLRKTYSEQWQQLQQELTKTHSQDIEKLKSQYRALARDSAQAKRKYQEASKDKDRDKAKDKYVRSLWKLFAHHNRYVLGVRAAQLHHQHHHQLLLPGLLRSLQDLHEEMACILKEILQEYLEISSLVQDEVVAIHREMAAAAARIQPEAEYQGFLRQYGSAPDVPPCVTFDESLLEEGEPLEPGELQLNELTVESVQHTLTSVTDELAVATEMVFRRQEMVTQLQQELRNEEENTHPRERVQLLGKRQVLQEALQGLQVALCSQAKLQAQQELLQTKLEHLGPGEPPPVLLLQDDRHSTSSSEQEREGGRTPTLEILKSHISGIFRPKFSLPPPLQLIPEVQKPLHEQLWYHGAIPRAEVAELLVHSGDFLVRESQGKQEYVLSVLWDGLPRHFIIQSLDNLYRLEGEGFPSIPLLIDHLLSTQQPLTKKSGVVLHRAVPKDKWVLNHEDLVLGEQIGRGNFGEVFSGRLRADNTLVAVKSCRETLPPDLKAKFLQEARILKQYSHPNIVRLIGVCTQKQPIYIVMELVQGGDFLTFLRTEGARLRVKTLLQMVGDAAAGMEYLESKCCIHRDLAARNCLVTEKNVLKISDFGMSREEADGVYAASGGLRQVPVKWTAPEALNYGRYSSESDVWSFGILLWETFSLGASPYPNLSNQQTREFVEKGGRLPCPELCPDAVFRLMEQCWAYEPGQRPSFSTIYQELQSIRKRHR

SH2 binding enrichment (c-Src SH2) | SH2 binding enrichment (SHP2-C SH2) | SH2 binding enrichment (Grb2 SH2) | Sequence | phosphorylation enrichment (Fer (mouse)) | phosphorylation enrichment (c-Src) | phosphorylation enrichment (Fes) | phosphorylation enrichment (MERTK) | phosphorylation enrichment (EPHB1) | phosphorylation enrichment (FGFR3) | phosphorylation enrichment (Fyn) | phosphorylation enrichment (EPHB2) | phosphorylation enrichment (AncSZ) | phosphorylation enrichment (Hck) | phosphorylation enrichment (c-Abl (mouse)) | phosphorylation enrichment (Jak2) | phosphorylation enrichment (FGFR1)
0.564 | 0.732 | 0.994 | RVGNMYVRGLS [ABCG8_Y209] | 0.468 | 0.331 | 0.839 | 0.395 | 0.457 | 0.682 | 0.574 | 0.471 | 0.672 | 0.675 | 0.494 | 0.709 | 0.58
0.573 | 0.828 | 0.924 | IEDNKYTAREG [HCK_Y411_E410K] | 0.392 | 0.506 | 1.03 | 0.356 | 0.588 | 0.545 | 0.507 | 0.543 | 0.926 | 0.469 | 0.756 | 0.788 | 0.558
1.53 | 1.65 | 1.93 | CLLHCYFSQIR [MCM3AP_Y873] | 0.391 | 0.368 | 1.32 | 0.401 | 0.497 | 0.867 | 0.327 | 0.428 | 0.856 | 0.413 | 0.667 | 1.21 | 0.518
0.465 | 0.623 | 0.78 | IKETHYMVDRC | 0.47 | 0.464 | 0.992 | 0.481 | 0.472 | 0.579 | 0.455 | 0.704 | 0.992 | 0.461 | 0.581 | 0.654 | 0.555
0.6 | 0.757 | 0.968 | CNNFICGGCRG [SPINT2_Y163_Y163C] | 0.443 | 0.415 | 0.902 | 0.488 | 0.466 | 0.644 | 0.519 | 0.515 | 0.963 | 0.504 | 0.697 | 0.87 | 0.5

More lines, now with the values behind:

Sequence | SH2 binding enrichment (c-Src SH2) | SH2 binding enrichment (SHP2-C SH2) | SH2 binding enrichment (Grb2 SH2) | phosphorylation enrichment (Fer (mouse)) | phosphorylation enrichment (c-Src) | phosphorylation enrichment (Fes) | phosphorylation enrichment (MERTK) | phosphorylation enrichment (EPHB1) | phosphorylation enrichment (FGFR3) | phosphorylation enrichment (Fyn) | phosphorylation enrichment (EPHB2) | phosphorylation enrichment (AncSZ) | phosphorylation enrichment (Hck) | phosphorylation enrichment (c-Abl (mouse)) | phosphorylation enrichment (Jak2) | phosphorylation enrichment (FGFR1)
GQETSYIEDNC [PAH_Y24] | 0.68 | 0.559 | 1.05 | 0.51 | 0.515 | 1.28 | 0.466 | 0.83 | 0.769 | 0.507 | 0.758 | 1.47 | 0.666 | 0.74 | 1.15 | 0.452
IVEYAYNDKAV [PUM3_Y259_I264V] | 0.719 | 0.881 | 0.927 | 0.455 | 0.492 | 1.1 | 0.5 | 0.669 | 0.673 | 0.418 | 0.418 | 0.989 | 0.42 | 1.01 | 1 | 0.52
EKQLLYSENKT [FRK_Y132] | 0.55 | 0.674 | 0.976 | 1.19 | 0.616 | 0.919 | 0.766 | 0.528 | 0.599 | 0.465 | 0.652 | 0.732 | 0.85 | 0.563 | 0.638 | 0.456
